Key:
[1] = target: T1, BMPR-IA (BMP receptor type IA) (UniProt P36894 24-152, limits assumed); assay: ELISA: peptide coated on plate, BMPR-1A added, detected with anti-receptor antibody and HRP secondary, ABTS, absorbance at 595 nm
T1 construct: Soluble receptor added to the PEP7-coated plate; also called BMPR-1A; BMP-specific receptor
Description: (§1) PEP7 ([…]) was added to an ELISA plate and incubated at 4° C. for 12 hours. After PEP7 was coated on the plate, BMPR-1A or BMPR-II ([…]) was added thereto and reacted at room temperature for 2 hours, to obtain a PEP7-BMP receptor complex. A primary antibody specific for a BMP receptor (0.5 mg BMPR-1A, BMPR-11) was added to the complex and reacted at room temperature for 1 hour. A secondary antibody (BMPR-1A- or BMPRII-Fc Ab-HRP) was then added to the resulting mixture and reacted at room temperature for 1 hour.

[2] = target: T2, BMPR-II (BMP receptor type II) (UniProt Q13873 27-151, limits assumed); assay: ELISA: peptide coated on plate, BMPR-II added, detected with anti-receptor antibody and HRP secondary, ABTS, absorbance at 595 nm
T2 construct: Soluble receptor added to the PEP7-coated plate; also called BMPR-11; BMP-II
T2 sequence (looked up): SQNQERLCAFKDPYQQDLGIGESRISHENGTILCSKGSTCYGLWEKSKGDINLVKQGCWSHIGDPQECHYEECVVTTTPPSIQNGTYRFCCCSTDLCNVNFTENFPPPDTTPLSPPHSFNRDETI
Description: as §1

T1 sequence (P36894 24-152 limits assumed): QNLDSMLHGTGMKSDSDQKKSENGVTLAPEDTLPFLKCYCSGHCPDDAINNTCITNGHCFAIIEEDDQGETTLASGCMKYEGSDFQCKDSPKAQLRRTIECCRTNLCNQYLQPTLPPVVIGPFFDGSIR

binding affinity relative to PEP 111 (ELISA absorbance) [1]: ~23 % higher than PEP 111 | binding affinity relative to PEP 111 (ELISA absorbance) [2]: ~23 % higher than PEP 111
B1: PEP7 oligopeptide (SEQ ID NO:1) (peptide)
peptide: KIPKPSSVPTELSAISMLYL
notes: Synthetic peptide made by the Fmoc/tBu method, coated on the ELISA plate

From US20120316118A1 (OSSTEMIMPLANT, published 2012)
